Measured values published in US20250152727A1.

Molecular target: recombinant human TfR1 (human) (UniProt P02786)
Assay: SPR (Carterra LSA), IgG captured on chip, TfR1 as analyte, 25 C

recombinant human TfR1 (human), sequence (P02786 89-760 limits assumed): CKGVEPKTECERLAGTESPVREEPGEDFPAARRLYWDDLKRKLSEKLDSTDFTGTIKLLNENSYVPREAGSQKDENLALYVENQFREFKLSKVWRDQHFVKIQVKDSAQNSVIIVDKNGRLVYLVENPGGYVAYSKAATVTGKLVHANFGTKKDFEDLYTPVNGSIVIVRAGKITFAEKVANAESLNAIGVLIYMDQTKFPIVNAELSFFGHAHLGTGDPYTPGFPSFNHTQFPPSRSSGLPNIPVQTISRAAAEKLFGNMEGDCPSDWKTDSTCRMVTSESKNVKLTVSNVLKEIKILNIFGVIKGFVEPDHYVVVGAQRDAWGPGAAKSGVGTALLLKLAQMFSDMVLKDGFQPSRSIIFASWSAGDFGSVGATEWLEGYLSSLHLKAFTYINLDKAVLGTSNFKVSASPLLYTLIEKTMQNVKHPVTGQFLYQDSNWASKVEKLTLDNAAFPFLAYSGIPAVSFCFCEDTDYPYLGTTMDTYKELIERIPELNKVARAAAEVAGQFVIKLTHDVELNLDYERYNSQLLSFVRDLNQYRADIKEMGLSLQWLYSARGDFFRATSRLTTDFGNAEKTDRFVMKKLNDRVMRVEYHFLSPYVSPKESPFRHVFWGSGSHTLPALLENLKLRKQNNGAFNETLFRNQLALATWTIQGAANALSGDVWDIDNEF

OKT9 mIgG (antibody)
Kd: 536 pM
